Laboratory results reported in US11130793B2, “GLP-1/GLP-2 dual agonists” (Zealand Pharma A/S, priority 2016, dated 2021).
Square brackets hold non-standard residues; d marks the D form. Aib = CC(C)(N)C(=O)O

Tests used:
[1] = target: T1, human GLP-2 receptor (hGLP2-R) (human, UniProt O95838); assay: cell-based or functional assay
T1 sequence: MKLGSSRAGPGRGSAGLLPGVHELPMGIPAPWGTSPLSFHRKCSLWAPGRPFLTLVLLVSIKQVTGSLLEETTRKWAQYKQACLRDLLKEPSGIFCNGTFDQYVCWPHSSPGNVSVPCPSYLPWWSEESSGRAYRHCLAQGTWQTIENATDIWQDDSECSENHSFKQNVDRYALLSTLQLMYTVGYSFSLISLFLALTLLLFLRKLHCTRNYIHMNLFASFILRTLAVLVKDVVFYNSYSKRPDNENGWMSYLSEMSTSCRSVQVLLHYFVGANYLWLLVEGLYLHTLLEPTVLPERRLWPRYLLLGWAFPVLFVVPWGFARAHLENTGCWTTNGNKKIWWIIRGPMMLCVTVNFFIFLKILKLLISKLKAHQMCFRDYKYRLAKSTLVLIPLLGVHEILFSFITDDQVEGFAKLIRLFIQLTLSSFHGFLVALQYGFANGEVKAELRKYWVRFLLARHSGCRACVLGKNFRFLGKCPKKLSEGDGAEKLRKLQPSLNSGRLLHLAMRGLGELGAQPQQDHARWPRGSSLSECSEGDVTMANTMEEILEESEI

[2] = target: human glucagon-like peptide 1 receptor (GLP-1R) (human, UniProt P43220); assay: cell-based or functional assay

B1: Compound 26 (peptide)
peptide: H-H[Aib]EGTFTSELATILDEQAARDFIAWLQAQKITD-OH
SMILES: CC[C@H](C)[C@H](NC(=O)[C@H](Cc1ccccc1)NC(=O)[C@H](CC(=O)O)NC(=O)[C@H](CCCNC(=N)N)NC(=O)[C@H](C)NC(=O)[C@H](C)NC(=O)[C@H](CCC(N)=O)NC(=O)[C@H](CCC(=O)O)NC(=O)[C@H](CC(=O)O)NC(=O)[C@H](CC(C)C)NC(=O)[C@@H](NC(=O)[C@@H](NC(=O)[C@H](C)NC(=O)[C@H](CC(C)C)NC(=O)[C@H](CCC(=O)O)NC(=O)[C@H](CO)NC(=O)[C@@H](NC(=O)[C@H](Cc1ccccc1)NC(=O)[C@@H](NC(=O)CNC(=O)[C@H](CCC(=O)O)NC(=O)C(C)(C)NC(=O)[C@@H](N)Cc1c[nH]cn1)[C@@H](C)O)[C@@H](C)O)[C@@H](C)O)[C@@H](C)CC)C(=O)N[C@@H](C)C(=O)N[C@@H](Cc1c[nH]c2ccccc12)C(=O)N[C@@H](CC(C)C)C(=O)N[C@@H](CCC(N)=O)C(=O)N[C@@H](C)C(=O)N[C@@H](CCC(N)=O)C(=O)N[C@@H](CCCCN)C(=O)N[C@H](C(=O)N[C@H](C(=O)N[C@@H](CC(=O)O)C(=O)O)[C@@H](C)O)[C@@H](C)CC
[1]
  EC50 GLP-2 (nM); cAMP AlphaScreen: 0.19 nM
[2]
  EC50 GLP-1 (nM); cAMP AlphaScreen: 0.013 nM

B2: Compound 1 (peptide)
peptide: H-H[Aib]EGSFTSELATILDEQAARDFIAWLIAHKITD-OH
SMILES: CC[C@H](C)[C@H](NC(=O)[C@H](CC(C)C)NC(=O)[C@H](Cc1c[nH]c2ccccc12)NC(=O)[C@H](C)NC(=O)[C@@H](NC(=O)[C@H](Cc1ccccc1)NC(=O)[C@H](CC(=O)O)NC(=O)[C@H](CCCNC(=N)N)NC(=O)[C@H](C)NC(=O)[C@H](C)NC(=O)[C@H](CCC(N)=O)NC(=O)[C@H](CCC(=O)O)NC(=O)[C@H](CC(=O)O)NC(=O)[C@H](CC(C)C)NC(=O)[C@@H](NC(=O)[C@@H](NC(=O)[C@H](C)NC(=O)[C@H](CC(C)C)NC(=O)[C@H](CCC(=O)O)NC(=O)[C@H](CO)NC(=O)[C@@H](NC(=O)[C@H](Cc1ccccc1)NC(=O)[C@H](CO)NC(=O)CNC(=O)[C@H](CCC(=O)O)NC(=O)C(C)(C)NC(=O)[C@@H](N)Cc1c[nH]cn1)[C@@H](C)O)[C@@H](C)O)[C@@H](C)CC)[C@@H](C)CC)C(=O)N[C@@H](C)C(=O)N[C@@H](Cc1c[nH]cn1)C(=O)N[C@@H](CCCCN)C(=O)N[C@H](C(=O)N[C@H](C(=O)N[C@@H](CC(=O)O)C(=O)O)[C@@H](C)O)[C@@H](C)CC
[1]
  EC50 GLP-2 (nM); cAMP AlphaScreen: 0.036 nM
[2]
  EC50 GLP-1 (nM); cAMP AlphaScreen: 0.014 nM

B3: Compound 24 (peptide)
peptide: H-H[Aib]EGSFTSELATILDEQAARDFIAWLQAHKITD-OH
SMILES: CC[C@H](C)[C@H](NC(=O)[C@H](Cc1ccccc1)NC(=O)[C@H](CC(=O)O)NC(=O)[C@H](CCCNC(=N)N)NC(=O)[C@H](C)NC(=O)[C@H](C)NC(=O)[C@H](CCC(N)=O)NC(=O)[C@H](CCC(=O)O)NC(=O)[C@H](CC(=O)O)NC(=O)[C@H](CC(C)C)NC(=O)[C@@H](NC(=O)[C@@H](NC(=O)[C@H](C)NC(=O)[C@H](CC(C)C)NC(=O)[C@H](CCC(=O)O)NC(=O)[C@H](CO)NC(=O)[C@@H](NC(=O)[C@H](Cc1ccccc1)NC(=O)[C@H](CO)NC(=O)CNC(=O)[C@H](CCC(=O)O)NC(=O)C(C)(C)NC(=O)[C@@H](N)Cc1c[nH]cn1)[C@@H](C)O)[C@@H](C)O)[C@@H](C)CC)C(=O)N[C@@H](C)C(=O)N[C@@H](Cc1c[nH]c2ccccc12)C(=O)N[C@@H](CC(C)C)C(=O)N[C@@H](CCC(N)=O)C(=O)N[C@@H](C)C(=O)N[C@@H](Cc1c[nH]cn1)C(=O)N[C@@H](CCCCN)C(=O)N[C@H](C(=O)N[C@H](C(=O)N[C@@H](CC(=O)O)C(=O)O)[C@@H](C)O)[C@@H](C)CC
[1]
  EC50 GLP-2 (nM); cAMP AlphaScreen: 0.049 nM
[2]
  EC50 GLP-1 (nM); cAMP AlphaScreen: 0.042 nM

## H-H[Aib]EGSFTSELATILDEQAARDFIAWLYRHKITD-OH (not fully specified; printed as Hy-H[Aib]EGSFTSELATILDEQAARDFIAWLYRHKITD-OH) [Compound 30]
[1]
  EC50 GLP-2 (nM); cAMP AlphaScreen: 0.034 nM
[2]
  EC50 GLP-1 (nM); cAMP AlphaScreen: 0.1 nM

## H-H[Aib]EGTFTSELSTILDEQAARDFIAWLHAQKITD-OH (not fully specified; printed as Hy-H[Aib]EGTFTSELSTILDEQAARDFIAWLHAQKITD-OH) [Compound 27]
[1]
  EC50 GLP-2 (nM); cAMP AlphaScreen: 0.37 nM
[2]
  EC50 GLP-1 (nM); cAMP AlphaScreen: 0.12 nM

B4: Compound 28 (peptide)
peptide: H-H[Aib]EGSFTSELATILDEQAARDFIAWLYAHKITD-OH
SMILES: CC[C@H](C)[C@H](NC(=O)[C@H](Cc1ccccc1)NC(=O)[C@H](CC(=O)O)NC(=O)[C@H](CCCNC(=N)N)NC(=O)[C@H](C)NC(=O)[C@H](C)NC(=O)[C@H](CCC(N)=O)NC(=O)[C@H](CCC(=O)O)NC(=O)[C@H](CC(=O)O)NC(=O)[C@H](CC(C)C)NC(=O)[C@@H](NC(=O)[C@@H](NC(=O)[C@H](C)NC(=O)[C@H](CC(C)C)NC(=O)[C@H](CCC(=O)O)NC(=O)[C@H](CO)NC(=O)[C@@H](NC(=O)[C@H](Cc1ccccc1)NC(=O)[C@H](CO)NC(=O)CNC(=O)[C@H](CCC(=O)O)NC(=O)C(C)(C)NC(=O)[C@@H](N)Cc1c[nH]cn1)[C@@H](C)O)[C@@H](C)O)[C@@H](C)CC)C(=O)N[C@@H](C)C(=O)N[C@@H](Cc1c[nH]c2ccccc12)C(=O)N[C@@H](CC(C)C)C(=O)N[C@@H](Cc1ccc(O)cc1)C(=O)N[C@@H](C)C(=O)N[C@@H](Cc1c[nH]cn1)C(=O)N[C@@H](CCCCN)C(=O)N[C@H](C(=O)N[C@H](C(=O)N[C@@H](CC(=O)O)C(=O)O)[C@@H](C)O)[C@@H](C)CC
[1]
  EC50 GLP-2 (nM); cAMP AlphaScreen: 0.024 nM
[2]
  EC50 GLP-1 (nM); cAMP AlphaScreen: 0.11 nM

B5: Compound 25 (peptide)
peptide: H-H[Aib]EGSFTSELATILDEQAARDFIAWLIAQKITD-OH
SMILES: CC[C@H](C)[C@H](NC(=O)[C@H](CC(C)C)NC(=O)[C@H](Cc1c[nH]c2ccccc12)NC(=O)[C@H](C)NC(=O)[C@@H](NC(=O)[C@H](Cc1ccccc1)NC(=O)[C@H](CC(=O)O)NC(=O)[C@H](CCCNC(=N)N)NC(=O)[C@H](C)NC(=O)[C@H](C)NC(=O)[C@H](CCC(N)=O)NC(=O)[C@H](CCC(=O)O)NC(=O)[C@H](CC(=O)O)NC(=O)[C@H](CC(C)C)NC(=O)[C@@H](NC(=O)[C@@H](NC(=O)[C@H](C)NC(=O)[C@H](CC(C)C)NC(=O)[C@H](CCC(=O)O)NC(=O)[C@H](CO)NC(=O)[C@@H](NC(=O)[C@H](Cc1ccccc1)NC(=O)[C@H](CO)NC(=O)CNC(=O)[C@H](CCC(=O)O)NC(=O)C(C)(C)NC(=O)[C@@H](N)Cc1c[nH]cn1)[C@@H](C)O)[C@@H](C)O)[C@@H](C)CC)[C@@H](C)CC)C(=O)N[C@@H](C)C(=O)N[C@@H](CCC(N)=O)C(=O)N[C@@H](CCCCN)C(=O)N[C@H](C(=O)N[C@H](C(=O)N[C@@H](CC(=O)O)C(=O)O)[C@@H](C)O)[C@@H](C)CC
[1]
  EC50 GLP-2 (nM); cAMP AlphaScreen: 0.062 nM
[2]
  EC50 GLP-1 (nM); cAMP AlphaScreen: 0.008 nM

## H-H[Aib]EGTFTDELATILDEQAARDFIAWLQAQKITD-OH (not fully specified; printed as Hy-H[Aib]EGTFTDELATILDEQAARDFIAWLQAQKITD-OH) [Compound 29]
[1]
  EC50 GLP-2 (nM); cAMP AlphaScreen: 0.11 nM
[2]
  EC50 GLP-1 (nM); cAMP AlphaScreen: 0.044 nM
